This passage reports optical density results from patent publication US20210380703A1 (RIGEL PHARMACEUTICALS, published 2021).

Assay [1] concerns the target T1, Human ACVR2A (human, UniProt P27037 20-135, limits assumed).
T1 construct: also called activin receptor, type II A
The experiment in a line: ELISA. In short, it runs like this:
(§1)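 mAb binding by ELISA; antigens: hu ACVR2A, mu ACVR2A; pos ctrl biotinylated goat anti-hu kappa LC; neg ctrl hu Fc.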
On the technique in general: In an ELISA, binding on a coated surface is turned into a signal by an enzyme label.

Assay [2] has as its target Mouse ACVR2A (mouse, UniProt P27038 20-135, limits assumed). Nature of the assay: ELISA. A digest of the protocol:
as §1

Assay [3] addresses T2, Goat anti-Human Kappa.
T2 construct: Positive control of the ELISA; also called biotinylated goat anti-human kappa light chain
The experiment in a line: ELISA, positive control. A digest of the protocol:
as §1
Also: test concentration or dose not given here.

Chain of Mouse ACVR2A (P27038 20-135 limits assumed): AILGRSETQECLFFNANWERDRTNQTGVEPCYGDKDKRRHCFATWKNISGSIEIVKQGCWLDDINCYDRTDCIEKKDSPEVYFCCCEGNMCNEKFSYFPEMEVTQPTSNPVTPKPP
T1 sequence (P27037 20-135 limits assumed): as the sequence (P27038 20-135 limits assumed) above, with R20K, I73V counted along it

B1: 370_D04 (antibody, V domains shown)
VH: EVQLLESGGGLVQPGGSLRLSCAASGFTFDSYSMNWVRQAPGKGLEWVANINYNSGYKGYADSVKGRFTISRDNSKNTLYLQMNSLRAEDTAVYYCARSANWHDTALDYWGQGTLVTVSS
VL: DIQMTQSPSSLSASVGDRVTITCRASQSILTYLNWYQQKPGKAPKLVIYAATSRASGVPSRFSGSGSGTDFTLTISSLQPEDFATYYCQQSYDNPLTFGGGTKVEIK
In the case of B1, the optical density is 3.59 OD in assay [1], 3.74 OD in assay [2] and 3.6 OD in assay [3].

B2: 370_E06 (antibody, V domains shown)
VH: EVQLLESGGGLVQPGGSLRLSCAASGFTFSSYGMNWVRQAPGKGLEWVSGINYNSGYKSYADSVKGRFTISRDNSKNTLYLQMNSLRAEDTAVYYCARSANWHDTALDYWGQGTLVTVSS
VL: DIQMTQSPSSLSASVGDRVTITCRASQSILSYLNWYQQKPGKAPKLVIYATTSLASGVPSRFSGSGSGTDFTLTISSLQPEDFATYYCQQSYDTPLTFGGGTKVEIK
As for B2, the optical density in assay [1] was determined as 2.9 OD; in assay [2] it was 3.02 OD; in assay [3] it was 3.61 OD.

B3: 370_F10 (antibody, V domains shown)
VH: EVQLLESGGGLVQPGGSLRLSCAASGFTFSSYSMNWVRQAPGKGLEWVAGINYNGGYTSYADSVKGRFTISRDNSKNTLYLQMNSLRAEDTAVYYCARSANWHDTALDYWGQGTLVTVSS
VL: DIQMTQSPSSLSASVGDRVTITCRASQSIVSYLNWYQQKPGKAPKLVIYAATSRASGVPSRFSGSGSGTDFTLTISSLQPEDFATYYCQQSYNSPLTFGGGTKVEIK
For the molecule B3, the optical density in assay [1] turned out to be 3.15 OD; in assay [2], 3.22 OD; in assay [3] it was 3.64 OD.

B4: 370_G06 (antibody, V domains shown)
VH: EVQLLESGGGLVQPGGSLRLSCAASGFTFSDYGMHWVRQAPGKGLEWVSSINYNGGYTSYADSVKGRFTISRDNSKNTLYLQMNSLRAEDTAVYYCARSANWHDTALDYWGQGTLVTVSS
VL: DIQMTQSPSSLSASVGDRVTITCRASQSILSYVNWYQQKPGKAPKLVIYAATSRASGVPSRFSGSGSGTDFTLTISSLQPEDFATYYCQQSDNTPLTFGGGTKVEIK
Consider B4, for which the optical density is 2.19 OD in assay [1], 2.33 OD in assay [2] and 3.41 OD in assay [3].

B5: 370_F07 (antibody, V domains shown)
VH: EVQLLESGGGLVQPGGSLRLSCAASGFTFDSYSMNWVRQAPGKGLEWVSNINYNGGYKGYADSVKGRFTISRDNSKNTLYLQMNSLRAEDTAVYYCARSANWHDTALDYWGQGTLVTVSS
VL: DIQMTQSPSSLSASVGDRVTITCRASQSILSYLNWYQQKPGKAPKLLIYAATSRASGVPSRFSGSGSGTDFTLTISSLQPEDFATYYCQQSYNLPLTFGGGTKVEIK
Consider B5, for which the optical density came to 3.45 OD in assay [1], 3.53 OD in assay [2] and 3.52 OD in assay [3].

B6: 370_F05 (antibody, V domains shown)
VH: EVQLLESGGGLVQPGGSLRLSCAASGFTFSSYGMNWVRQAPGKGLEWVSGINYNSGYTSYADSVKGRFTISRDNSKNTLYLQMNSLRAEDTAVYYCARSANWHDTALDYWGQGTLVTVSS
VL: DIQMTQSPSSLSASVGDRVTITCRASQSIVSYVNWYQQKPGKAPKLVIYAATSRASGVPSRFSGSGSGTDFTLTISSLQPEDFATYYCQQSYETPLTFGGGTKVEIK
Regarding B6, the results for the optical density in assay [1], in assay [2] and in assay [3] were 2.76 OD, 2.91 OD and 3.54 OD, respectively.

B7: 370_E09 (antibody, V domains shown)
VH: EVQLLESGGGLVQPGGSLRLSCAASGFTFDDSSMHWVRQAPGKGLEWVSNINYNGGYTGYADSVKGRFTISRDNSKNTLYLQMNSLRAEDTAVYYCAKSANWHDTALDYWGQGTLVTVSS
VL: DIQMTQSPSSLSASVGDRVTITCRASQSILSYVNWYQQKPGKAPKLVIYAATSRASGVPSRFSGSGSGTDFTLTISSLQPEDFATYYCQQSYELPLTFGGGTKVEIK
With B7, the optical density in assay [1] was 3.45 OD; in assay [2] it was 3.56 OD; in assay [3] it was 3.6 OD.

B8: 370_G10 (antibody, V domains shown)
VH: EVQLLESGGGLVQPGGSLRLSCAASGFTFSDYGMNWVRQAPGKGLEWVSGINYNSGYTSYADSVKGRFTISRDNSKNTLYLQMNSLRAEDTAVYYCARSANWHDTALDYWGQGTLVTVSS
VL: DIQMTQSPSSLSASVGDRVTITCRASQSISSYLNWYQQKPGKAPKLLIYVVNNRASGVPSRFSGSGSGTDFTLTISSLQPEDFATYYCQQSYENPLTFGGGTKVEIK
As for B8, the values for the optical density in assay [1], in assay [2] and in assay [3] were 2.98 OD, 2.74 OD and 3.49 OD, respectively.

B9: 370_G02 (antibody, V domains shown)
VH: EVQLLESGGGLVQPGGSLRLSCAASGFTFSDYSMNWVRQAPGKGLEWVANINYNGGYKGYADSVKGRFTISRDNSKNTLYLQMNSLRAEDTAVYYCARSANWHDTALDYWGQGTLVTVSS
VL: DIQMTQSPSSLSASVGDRVTITCRASQSIVSYLNWYQQKPGKAPKLLIYAATSRHSGVPSRFSGSGSGTDFTLTISSLQPEDFATYYCQQSYDSPLTFGGGTKVEIK
Take B9: the results for the optical density in assay [1], in assay [2] and in assay [3] were 2.98 OD, 3.22 OD and 3.62 OD, respectively.

B10: 370_D11 (antibody, V domains shown)
VH: EVQLLESGGGLVQPGGSLRLSCAASGFTFDSYSMNWVRQAPGKGLEWVSGINYNGGYTGYADSVKGRFTISRDNSKNTLYLQMNSLRAEDTAVYYCARSANWHDTALDYWGQGTLVTVSS
VL: DIQMTQSPSSLSASVGDRVTITCRASQSIVSYLNWYQQKPGKAPKLLIYAATSRASGVPSRFSGSGSGTDFTLTISSLQPEDFATYYCQQSYDTPLTFGGGTKVEIK
Take B10: the values for the optical density in assay [1], in assay [2] and in assay [3] were 2.72 OD, 2.79 OD and 3.38 OD, respectively.

B11: 370_G09 (antibody, V domains shown)
VH: EVQLLESGGGLVQPGGSLRLSCAASGFTFSSYGMNWVRQAPGKGLEWVAGINYNGGYKSYADSVKGRFTISRDNSKNTLYLQMNSLRAEDTAVYYCARSANWHDTALDYWGQGTLVTVSS
VL: DIQMTQSPSSLSASVGDRVTITCRASQSILSYVNWYQQKPGKAPKLVIYAATSRASGVPSRFSGSGSGTDFTLTISSLQPEDFATYYCQQSYESPLTFGGGTKVEIK
On to B11, for which the optical density in assay [1] came to 3.01 OD; in assay [2], 3.14 OD; in assay [3], 3.64 OD.

B12: 370_E03 (antibody, V domains shown)
VH: EVQLLESGGGLVQPGGSLRLSCAASGFTFSSYGMNWVRQAPGKGLEWVSSINYNGGYKGYADSVKGRFTISRDNSKNTLYLQMNSLRAEDTAVYYCARSANWHDTALDYWGQGTLVTVSS
VL: DIQMTQSPSSLSASVGDRVTITCRASQSILTYLNWYQQKPGKAPKLVIYYASNRASGVPSRFSGSGSGTDFTLTISSLQPEDFATYYCQQSYDSPLTFGGGTKVEIK
Consider B12, for which the optical density in assay [1] came to 3.64 OD; in assay [2], 3.74 OD; in assay [3], 3.57 OD.

B13: 370_G03 (antibody, V domains shown)
VH: EVQLLESGGGLVQPGGSLRLSCAASGFTFSSYSMNWVRQAPGKGLEWVANINYNGGYTGYADSVKGRFTISRDNSKNTLYLQMNSLRAEDTAVYYCARSANWHDTALDYWGQGTLVTVSS
VL: DIQMTQSPSSLSASVGDRVTITCRASQSILTYVNWYQQKPGKAPKLVIYATTSRASGVPSRFSGSGSGTDFTLTISSLQPEDFATYYCQQSYNNPLTFGGGTKVEIK
With B13, the optical density in assay [1] was determined as 3.1 OD; in assay [2], 3.44 OD; in assay [3], 3.58 OD.
